From US20230416329A1, “A PEPTIDE WITH DISULFIDE BONDS AND INHIBITORY ACTIVITY AGAINST SERINE PROTEASES, DERIVED HYBRID PEPTIDES THEREOF, AND USES THEREOF” (INSTITUTE OF MATERIA MEDICA , CHINESE ACADEMY OF MEDICAL …, priority 2020, published 2023) come the findings set out here.

This assay has as its system P407-induced hyperlipidemia mice. The experiment in a line: Effect of Repatha on serum TC and LDL-C in P407-induced hyperlipidemia mice (model validation). It is filed as in vivo, mouse. Here is the method:
Model preparation and validation: Normal ICR mice were fasted overnight with water ad libitum. The poloxamer 407 (P407, 500 mg/kg) was intraperitoneally injected on the next day. […] The clinical drug Repatha was injected subcutaneously at a dose of 40 mg/kg for 24 hours, followed by intraperitoneal injection of P407. The serum TC and LDL-C levels were measured 24 hours after injection of P407 (Table 25).

[1] abbreviates: serum, Repatha 40 mg/kg subcutaneous, 24 hours after P407 injection.

B1: Repatha: the clinical (marketed) drug Repatha, positive control in the P407 hyperlipidemia model (antibody, chains of the INN, looked up, V domains shown)
VH: EVQLVQSGAEVKKPGASVKVSCKASGYTLTSYGISWVRQAPGQGLEWMGWVSFYNGNTNYAQKLQGRGTMTTDPSTSTAYMELRSLRSDDTAVYYCARGYGMDVWGQGTTVTVSS
VL: ESALTQPASVSGSPGQSITISCTGTSSDVGGYNSVSWYQQHPGKAPKLMIYEVSNRPSGVSNRFSGSKSGNTASLTISGLQAEDEADYYCNSYTSTSMVFGGGTKLTVL
For B1, the “serum TC and LDL-C levels (in words)” value (40 mg/kg s.c., P407 500 mg/kg i.p., ICR mice) is “significantly reduced the serum TC and LDL-C levels”. Further, under setting [1], the LDL-C is listed as 0.364 ± 0.097 mmol/L and the TC is 190.0 ± 36.6 mg/dL.
